The text below walks through data of US20230159643A1 (H LUNDBECK A S, published 2023).

The target of assay [1] is T1, human wild type Sortilin on S18-HEK cells (human, UniProt Q99523 78-831).
T1 sequence: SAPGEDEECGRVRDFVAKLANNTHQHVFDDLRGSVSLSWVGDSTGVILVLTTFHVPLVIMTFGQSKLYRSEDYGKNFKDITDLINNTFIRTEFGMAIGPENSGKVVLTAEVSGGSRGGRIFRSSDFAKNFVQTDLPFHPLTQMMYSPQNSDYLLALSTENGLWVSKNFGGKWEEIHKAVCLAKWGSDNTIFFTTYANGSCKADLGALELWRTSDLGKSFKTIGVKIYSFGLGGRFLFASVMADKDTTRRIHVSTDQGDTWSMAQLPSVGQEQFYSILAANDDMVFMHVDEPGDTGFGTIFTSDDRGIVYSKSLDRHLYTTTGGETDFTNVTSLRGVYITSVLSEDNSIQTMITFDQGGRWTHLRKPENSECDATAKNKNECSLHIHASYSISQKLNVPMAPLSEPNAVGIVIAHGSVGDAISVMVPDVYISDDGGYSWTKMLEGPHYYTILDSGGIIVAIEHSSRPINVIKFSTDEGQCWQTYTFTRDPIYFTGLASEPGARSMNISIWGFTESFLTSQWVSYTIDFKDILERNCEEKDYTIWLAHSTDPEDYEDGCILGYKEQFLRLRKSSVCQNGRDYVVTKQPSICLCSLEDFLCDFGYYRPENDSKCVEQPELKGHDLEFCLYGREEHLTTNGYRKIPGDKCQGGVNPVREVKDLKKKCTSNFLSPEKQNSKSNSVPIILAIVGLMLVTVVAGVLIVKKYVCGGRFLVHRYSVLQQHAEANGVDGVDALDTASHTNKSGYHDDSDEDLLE
As to the kind of experiment: cell-based or functional assay.

The target of assay [2] is T2, Sortilin SORTECDBAP_tetra (tetraodon).
T2 construct: Fully tetraodon Sortilin ECD with BAP tag; also called tetraodon Sortilin
T2 chain: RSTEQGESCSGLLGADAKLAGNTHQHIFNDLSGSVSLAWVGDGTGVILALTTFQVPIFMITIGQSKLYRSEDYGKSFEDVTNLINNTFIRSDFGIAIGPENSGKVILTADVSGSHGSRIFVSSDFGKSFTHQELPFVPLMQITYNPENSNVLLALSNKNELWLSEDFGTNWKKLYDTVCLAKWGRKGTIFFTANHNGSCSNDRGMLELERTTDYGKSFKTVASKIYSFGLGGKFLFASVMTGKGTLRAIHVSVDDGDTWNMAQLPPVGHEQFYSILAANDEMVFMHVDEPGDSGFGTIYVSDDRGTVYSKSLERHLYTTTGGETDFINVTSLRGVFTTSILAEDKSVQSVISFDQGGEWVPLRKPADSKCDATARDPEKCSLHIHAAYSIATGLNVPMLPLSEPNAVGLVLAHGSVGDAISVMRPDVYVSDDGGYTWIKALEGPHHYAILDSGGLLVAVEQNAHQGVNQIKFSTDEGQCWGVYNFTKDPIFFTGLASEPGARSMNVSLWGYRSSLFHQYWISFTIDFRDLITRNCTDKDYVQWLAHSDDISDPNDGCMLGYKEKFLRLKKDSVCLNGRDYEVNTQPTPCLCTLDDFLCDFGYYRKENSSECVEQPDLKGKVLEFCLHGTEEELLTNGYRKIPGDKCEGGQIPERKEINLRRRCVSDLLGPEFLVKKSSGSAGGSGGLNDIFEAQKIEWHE
As to the kind of experiment: BLI Octet 384RED (Example 8), Sortilin construct in solution. As to the method: (§1) Binding kinetics of anti-Sortilin HuMab antibodies to Sortilin were determined using Octet 384RED (Fortebio, Menlo Park, USA). HuMab solutions of 2 μg/ml were made by dilution in sample diluent (ForteBio, art. No. 18-5028). Prot A sensors (ForteBio, art. no. 18-0004) were prewetted with kinetics buffer (1:10 sample diluent in PBS) for at least 600 seconds. Subsequently sensors were immobilized with HuMab solution for 600 seconds. A baseline response was obtained by dipping in kinetics buffer for 120 seconds. Association of SORTECD constructs was performed during a 1000 seconds incubation. This was followed by dissociation in kinetics buffer for 100 seconds. After dissociation, sensors were regenerated (10 mM Glycine pH 1.0) and neutralized (kinetics buffer) 3 times for 5 seconds. […] A molecular weight of 76.8 kDA was used for SORTECDHis. Data was fitted with ForteBio Analysis 6.4 software, using a global full fit.
On the technique in general: Biolayer interferometry detects binding as a change in optical thickness at a sensor tip.

The target in assay [3] is T3, Sortilin SORTECDBAP_hB01-05 (human/tetraodon chimera).
T3 construct: Shuffle construct
T3 chain: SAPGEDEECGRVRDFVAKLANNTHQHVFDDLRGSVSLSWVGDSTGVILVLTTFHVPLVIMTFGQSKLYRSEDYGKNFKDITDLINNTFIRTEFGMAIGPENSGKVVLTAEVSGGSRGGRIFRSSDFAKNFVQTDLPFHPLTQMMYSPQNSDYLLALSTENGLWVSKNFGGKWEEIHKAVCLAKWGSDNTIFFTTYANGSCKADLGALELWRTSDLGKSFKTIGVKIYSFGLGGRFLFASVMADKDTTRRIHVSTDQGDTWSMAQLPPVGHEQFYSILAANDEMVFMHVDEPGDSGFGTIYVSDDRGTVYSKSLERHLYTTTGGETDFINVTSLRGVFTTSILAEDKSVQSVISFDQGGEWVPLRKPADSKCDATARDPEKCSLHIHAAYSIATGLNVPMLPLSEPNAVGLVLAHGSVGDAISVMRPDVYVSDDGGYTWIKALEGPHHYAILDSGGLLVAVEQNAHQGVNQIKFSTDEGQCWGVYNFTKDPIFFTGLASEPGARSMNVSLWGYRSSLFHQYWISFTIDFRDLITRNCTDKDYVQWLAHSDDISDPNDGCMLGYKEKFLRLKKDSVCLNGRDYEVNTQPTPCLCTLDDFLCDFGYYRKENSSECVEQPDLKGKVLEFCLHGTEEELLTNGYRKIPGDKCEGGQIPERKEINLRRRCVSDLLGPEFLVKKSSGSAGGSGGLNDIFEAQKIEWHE
The assay is described as above. Here is the method: as §1

B1: Antibody 1F2 (antibody, V domains shown)
VH: EVQLVESGGDLVKPGGSLKLSCAASGFTFSSYGMSWVRQTPDKRLEWVAIISSGGSYTHYPDSVKGRFTISRDNAKNTLYLQMSSLKSEDTAMYYCARLCGPLCSGYWGQGTSVTVSS
VL: QAVVTQESALTTSPGETVTLTCRSSTGAVTTSNYANWVQEKPDHLFTGLIGGTNNRAPGVPARFSGSLIGDKAALTITGAQTEDEAIYFCALWYSNHFWVFGGGTKLTVLG
notes: Mouse anti-human Sortilin monoclonal antibody from hybridoma (BALB/c), purified on protein G; Assigned to the D Region; also called 1F2F4; Ab 1F2
For the molecule B1, the “extracellular PGRN in medium of Sortilin over-expressing HEK cells (ELISA), % of untreated control” value (shortened to “extracellular PGRN … % of untreated control”) in assay [1] was determined as 282%. In addition, the binding result in assay [2] and in assay [3] was “no binding (tested: 10 µg/ml construct)” throughout.

B2: Antibody 5E1 (antibody, V domains shown)
VH: EVHLVESGGDLVNPGGSLKLSCEASGFIFSIYGMSWVRQTPDKRLEWVAMISSGGIYTQYPDSVKGRFTISRDNAKNTLYLQMSGLKSEDTGTYHCTRHDDSWFAYWGQGTLVTVSA
VL: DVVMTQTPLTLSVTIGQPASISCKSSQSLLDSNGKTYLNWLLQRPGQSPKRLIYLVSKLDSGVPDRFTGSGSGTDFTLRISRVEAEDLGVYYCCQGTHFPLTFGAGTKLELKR
notes: Mouse anti-human Sortilin monoclonal antibody from hybridoma (BALB/c), purified on protein G; Assigned to the D Region; also called 5E1F6; Ab 5E1
Turning to B2, the “extracellular PGRN … % of untreated control” value in assay [1] turned out to be 177%. Also, the binding result in assay [2] and in assay [3] was “no binding (tested: 10 µg/ml construct)” in each case.

B3: 1320 (antibody, V domains shown)
VH: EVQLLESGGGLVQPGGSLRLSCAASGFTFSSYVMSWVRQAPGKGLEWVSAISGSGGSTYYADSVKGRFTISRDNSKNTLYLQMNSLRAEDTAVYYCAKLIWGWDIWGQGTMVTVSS
VL: EIVLTQSPATLSLSPGERATLSCRASQSVSSYLAWYQQRPGQAPRLLIYDASNRATGIPARFSGSGSGTDFTLSISSLEPEDFAVYYCQQRTNWSITFGQGTRLEIK
notes: also called IgG1-6003-1320; Antibody 1320
Take B3: the “extracellular PGRN … % of untreated control” value in assay [1] was determined as 114%.
